By Kd is commonly meant the free concentration of one partner at which half of the binding sites on the other are occupied at equilibrium, for simple one-to-one binding. A high value points to a looser complex. Usually IC50 stands for the point on the concentration scale where inhibition reaches its midpoint. High values mean lower potency, low ones higher potency.

One test addresses Histones. Put plainly: Luminex AtheNA Multi-Lyte ANA Test, 0.15 µg mab per test.
For a further test, the target named is centromere B protein (UniProt P07199). Described as above.
In a further test the target is FMS peptide (T4; HIV-1). Put plainly: SPR, FMS conjugate in DMPC liposomes. (In general: Surface plasmon resonance follows binding to a sensor surface in real time, without labels.)
The target in a further test is SS-A/Ro. Put plainly: Luminex AtheNA Multi-Lyte ANA Test, 0.15 µg mab per test.
The target of a further test is Mab 4E10. Put plainly: ELISA; gp140 (19.25-1230 nM) mixed with 10 µg/ml 4E10 MAb, added to wells with 1.35 µg cardiolipin. A general note: An ELISA detects its analyte on a solid surface through an enzyme-linked reagent.

Chain of FMS peptide (T4; HIV-1) (P03375 656-683): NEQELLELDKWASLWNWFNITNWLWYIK
Chain of UniProt P07199 (P07199 2-599): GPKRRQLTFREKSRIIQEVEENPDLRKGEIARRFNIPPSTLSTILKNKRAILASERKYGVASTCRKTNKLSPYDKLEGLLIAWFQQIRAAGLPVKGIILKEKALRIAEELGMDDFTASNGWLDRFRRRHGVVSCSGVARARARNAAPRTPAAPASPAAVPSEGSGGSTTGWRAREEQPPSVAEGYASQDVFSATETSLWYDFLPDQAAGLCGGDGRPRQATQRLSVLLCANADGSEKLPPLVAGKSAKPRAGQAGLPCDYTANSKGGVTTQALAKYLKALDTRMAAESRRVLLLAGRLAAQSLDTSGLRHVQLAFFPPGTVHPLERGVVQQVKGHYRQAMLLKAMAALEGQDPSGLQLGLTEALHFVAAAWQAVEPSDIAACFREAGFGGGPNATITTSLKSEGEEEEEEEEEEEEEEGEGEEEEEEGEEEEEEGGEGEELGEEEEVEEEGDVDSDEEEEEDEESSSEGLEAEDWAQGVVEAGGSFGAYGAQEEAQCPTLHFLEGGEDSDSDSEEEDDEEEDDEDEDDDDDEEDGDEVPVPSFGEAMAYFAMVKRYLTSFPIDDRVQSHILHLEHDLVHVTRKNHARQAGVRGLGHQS

Regarding IgG1b12 (antibody), the relative units based on a standard curve (relative units) with Histones was determined as 185; with centromere B protein it was 479.

Take Mab 2F5 (antibody): in the test with FMS peptide (T4; HIV-1), the Kd came out at 0.18 nM. Besides, the relative units based on a standard curve (relative units) with Histones was 1010; with SS-A/Ro, 290; in the test with centromere B protein, 1780.

Take Mab 4E10 (antibody): the Kd with FMS peptide (T4; HIV-1) amounted to 27 nM. The substance further came in with a relative units based on a standard curve (relative units) with SS-A/Ro of 221.

Consider “soluble HIV-1 Env gp140 oligomers (CON-S)”, for which, in the test with Mab 4E10, the IC50 is 145 nM.

The values are drawn from patent US20140322262A1.
